Results: patent US6521602 (GPC BIOTECH, dated 2003)

Molecular target: CDK4/cyclin D1 complex (UniProt P11802 1-303; P24385 1-295)
Test: cell-based or functional assay

Sequence of CDK4/cyclin D1 complex (P11802 whole entry, chain 1 of 2): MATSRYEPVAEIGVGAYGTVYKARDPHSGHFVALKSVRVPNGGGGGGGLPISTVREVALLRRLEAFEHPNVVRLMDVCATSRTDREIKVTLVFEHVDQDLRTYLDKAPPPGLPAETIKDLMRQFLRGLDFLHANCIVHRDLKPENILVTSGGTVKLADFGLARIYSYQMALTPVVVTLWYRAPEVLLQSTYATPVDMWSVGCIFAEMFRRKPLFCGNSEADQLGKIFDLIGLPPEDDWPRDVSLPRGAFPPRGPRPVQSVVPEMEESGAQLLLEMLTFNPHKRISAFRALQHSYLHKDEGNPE
Sequence of CDK4/cyclin D1 complex (P24385 whole entry, chain 2 of 2): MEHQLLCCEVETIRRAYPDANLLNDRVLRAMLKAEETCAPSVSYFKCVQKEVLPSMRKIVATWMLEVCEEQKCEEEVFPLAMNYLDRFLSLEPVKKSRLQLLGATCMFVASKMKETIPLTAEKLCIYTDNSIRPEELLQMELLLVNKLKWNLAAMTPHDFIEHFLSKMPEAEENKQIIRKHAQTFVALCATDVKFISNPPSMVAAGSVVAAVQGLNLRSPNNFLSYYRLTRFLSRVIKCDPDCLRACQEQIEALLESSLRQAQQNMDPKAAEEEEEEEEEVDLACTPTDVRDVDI

Work on human p27 (from UniProt P46527 1-198) yielded an IC50, in vitro kinase activity of 63 nM.

B1: human p16 (other)
chain: MEPAAGSSMEPSADWLATAAARGRVEEVRALLEAGALPNAPNSYGRRPIQVMMMGSARVAELLLLHGAEPNCADPATLTRPVHDAAREGFLDTLVVLHRAGARLDVRDAWGRLPVDLAEELGHRDVARYLRAAAGGTRGSNHARIDAAEGPSDIPD
B1 was tested, and the “IC50, in vitro kinase activity” value was 250 nM.
